Assay results from PMC5426849.

Target: fluoresceinated cortactin phospho-Y482 peptide
Test: fluorescence polarisation

“Abl SH2 domain, monomeric, cleaved from GST (from UniProt P00519 127-217) (domain or fragment)” showed a Kd of over 5 µM.
Substance “p85α N-terminal SH2 domain, cleaved from GST (domain or fragment)” has a Kd of over 5 µM.
In the case of “p85α C-terminal SH2 domain, cleaved from GST (domain or fragment)”, the Kd is reported as over 5 µM.
In the case of “PLCγ N-terminal SH2 domain, cleaved from GST (domain or fragment)”, the Kd is reported as over 5 µM.
For “PLCγ C-terminal SH2 domain, cleaved from GST (domain or fragment)”, the Kd was over 5 µM.
